Test results reported in paper PMC6451107, “Structural insights reveal the specific recognition of roX RNA by the dsRNA-binding domains of the RNA helicase MLE and its indispensable role in dosage compensation in Drosophila”.

What was measured:
Experiment in all cases: fluorescence polarization; FP: 80 nM 3'-FAM RNA stock mixed 1:1 with protein, buffer D (composition not in material), 15 min, 20 C; EMSA: 1200 nM RNA stock mixed 1:1 with protein, buffer
[1] = target: MLE dsRBD1+2 K229A (Drosophila, UniProt P24785 1-264, K229A); settings: protein: recombinant; tags: SUMO tag removed by ULP1; label: 3'-FAM; hairpin, 13 nt loop (C135-C147)
[2] = target: MLE dsRBD1+2 H196E (Drosophila, UniProt P24785 1-264, H196E); settings: protein: recombinant; tags: SUMO tag removed by ULP1; label: 3'-FAM; hairpin, 13 nt loop (C135-C147)
[3] = target: MLE dsRBD1+2 N223A/K224E/K225E/K229E (Drosophila, UniProt P24785 1-264, N223A;K224E;K225E;K229E); settings: protein: recombinant; tags: SUMO tag removed by ULP1; label: 3'-FAM; hairpin, 13 nt loop (C135-C147)
[4] = target: MLE dsRBD1+2 K4E (Drosophila, UniProt P24785 1-264, K4E); settings: protein: recombinant; tags: SUMO tag removed by ULP1; label: 3'-FAM; hairpin, 13 nt loop (C135-C147)
[5] = target: MLE dsRBD1+2 N175A (Drosophila, UniProt P24785 1-264, N175A); settings: protein: recombinant; tags: SUMO tag removed by ULP1; label: 3'-FAM; hairpin, 13 nt loop (C135-C147)
[6] = target: MLE dsRBD1+2 K4A (Drosophila, UniProt P24785 1-264, K4A); settings: protein: recombinant; tags: SUMO tag removed by ULP1; label: 3'-FAM; hairpin, 13 nt loop (C135-C147)
[7] = target: MLE dsRBD1+2 K171A (Drosophila, UniProt P24785 1-264, K171A); settings: protein: recombinant; tags: SUMO tag removed by ULP1; label: 3'-FAM; hairpin, 13 nt loop (C135-C147)
[8] = target: MLE dsRBD1+2 K4A/S5A (Drosophila, UniProt P24785 1-264, K4A;S5A); settings: protein: recombinant; tags: SUMO tag removed by ULP1; label: 3'-FAM; hairpin, 13 nt loop (C135-C147)
[9] = target: MLE dsRBD1+2 K171E/N175A (Drosophila, UniProt P24785 1-264, K171E;N175A); settings: protein: recombinant; tags: SUMO tag removed by ULP1; label: 3'-FAM; hairpin, 13 nt loop (C135-C147)
[10] = target: MLE dsRBD1+2 K58A (Drosophila, UniProt P24785 1-264, K58A); settings: protein: recombinant; tags: SUMO tag removed by ULP1; label: 3'-FAM; hairpin, 13 nt loop (C135-C147)
[11] = target: MLE dsRBD1+2 N52A/K53E/K54E/K58E (Drosophila, UniProt P24785 1-264, N52A;K53E;K54E;K58E); settings: protein: recombinant; tags: SUMO tag removed by ULP1; label: 3'-FAM; hairpin, 13 nt loop (C135-C147)
[12] = target: MLE dsRBD1+2 E195A (Drosophila, UniProt P24785 1-264, E195A); settings: protein: recombinant; tags: SUMO tag removed by ULP1; label: 3'-FAM; hairpin, 13 nt loop (C135-C147)
[13] = target: MLE dsRBD1+2 WT (Drosophila, UniProt P24785 1-264); settings: protein: recombinant, tags: SUMO tag (N-terminal, with Ni-NTA purification) removed by ULP1, label: 3'-FAM, hairpin
[14] = target: MLE dsRBD1+2 H196A (Drosophila, UniProt P24785 1-264, H196A); settings: protein: recombinant; tags: SUMO tag removed by ULP1; label: 3'-FAM; hairpin, 13 nt loop (C135-C147)
[15] = target: MLE dsRBD1+2 N223A/K224A/K225A (Drosophila, UniProt P24785 1-264, N223A;K224A;K225A); settings: protein: recombinant; tags: SUMO tag removed by ULP1; label: 3'-FAM; hairpin, 13 nt loop (C135-C147)
[16] = target: MLE dsRBD1+2 S5A (Drosophila, UniProt P24785 1-264, S5A); settings: protein: recombinant; tags: SUMO tag removed by ULP1; label: 3'-FAM; hairpin, 13 nt loop (C135-C147)
[17] = target: MLE dsRBD1+2 N52A/K53A/K54A (Drosophila, UniProt P24785 1-264, N52A;K53A;K54A); settings: protein: recombinant; tags: SUMO tag removed by ULP1; label: 3'-FAM; hairpin, 13 nt loop (C135-C147)
[18] = target: MLE dsRBD1+2 K4E/S5A (Drosophila, UniProt P24785 1-264, K4E;S5A); settings: protein: recombinant; tags: SUMO tag removed by ULP1; label: 3'-FAM; hairpin, 13 nt loop (C135-C147)
[19] = target: MLE dsRBD1+2 N29A (Drosophila, UniProt P24785 1-264, N29A); settings: protein: recombinant; tags: SUMO tag removed by ULP1; label: 3'-FAM; hairpin, 13 nt loop (C135-C147)
[20] = target: MLE dsRBD1+2 K171E (Drosophila, UniProt P24785 1-264, K171E); settings: protein: recombinant; tags: SUMO tag removed by ULP1; label: 3'-FAM; hairpin, 13 nt loop (C135-C147)
[21] = target: MLE dsRBD1+2 E172A (Drosophila, UniProt P24785 1-264, E172A); settings: protein: recombinant; tags: SUMO tag removed by ULP1; label: 3'-FAM; hairpin, 13 nt loop (C135-C147)
[22] = target: MLE dsRBD2 (Drosophila, UniProt P24785 152-264); settings: protein: recombinant; tags: SUMO tag removed by ULP1; label: 3'-FAM; hairpin, 13 nt loop (C135-C147)
[23] = target: MLE dsRBD1 (Drosophila, UniProt P24785 1-87); settings: protein: recombinant; tags: SUMO tag removed by ULP1; label: 3'-FAM; hairpin, 13 nt loop (C135-C147)

B1: R2H1 55mer (FAM) (structured_RNA)
RNA: GCUUUAGAGAUCGUUUCGAAUCACAUUGAUAAUCGUUCGAAACGUUCUCCGAAGC
Kd [1]: 880 ± 180 nM | Kd [2]: 7.24 ± 0.65 µM | Kd [3]: 60.1 ± 6.55 µM | Kd [4]: 6.55 ± 0.56 µM | Kd [5]: 1310 ± 260 nM | Kd [6]: 4.18 ± 0.27 µM | Kd [7]: 4.58 ± 0.68 µM | Kd [8]: 4.49 ± 0.54 µM | Kd [9]: 10.3 ± 1.14 µM | Kd [10]: 2380 ± 130 nM | Kd [11]: 12.5 ± 1.51 µM | Kd [12]: 150 ± 30 nM | Kd ([13]; 13 nt loop (C135-C147)): 200 ± 30 nM | Kd [14]: 3.02 ± 0.2 µM | Kd [15]: 18.9 ± 1.45 µM | Kd [16]: 1800 ± 240 nM | Kd [17]: 7.7 ± 0.36 µM | Kd [18]: 8.05 ± 0.34 µM | Kd [19]: 430 ± 70 nM | Kd [20]: 8.21 ± 0.26 µM | Kd [21]: 180 ± 40 nM | binding signal [22]: ~4.5 fold weaker than dsRBD1+2 | binding signal [23]: ~44 fold weaker than dsRBD1+2

B2: R2H1 U124A (structured_RNA)
RNA: GCUUUAGAGAACGUUUCGAAUCACAUUGAUAAUCGUUCGAAACGUUCUCCGAAGC
Kd [13]: 1030 ± 120 nM

B3: R2H1 U118C/A119G (structured_RNA)
RNA: GCUUCGGAGAUCGUUUCGAAUCACAUUGAUAAUCGUUCGAAACGUUCUCCGAAGC
Kd [13]: 420 ± 60 nM

B4: R2H1 U134C/C135G (structured_RNA)
RNA: GCUUUAGAGAUCGUUUCGAACGACAUUGAUAAUCGUUCGAAACGUUCUCCGAAGC
Kd [13]: 430 ± 50 nM
